Data published in patent US8394771.

Biological target: ICAM-1 on HeLa cells (human) (UniProt P05362)
Assay: cell-based or functional assay

EC50, protection of HeLa cells from HRV15 infection: > 10 nM
Substance: bivalent anti-ICAM-1 monoclonal antibody RR/1 (Chemicon)
